Sequences and labels used below:
B1: CpoB^TPR (CpoB^139-263), C-terminal TetratricoPeptide Repeat domain of CpoB (domain or fragment, E. coli, UniProt P45955 139-263, looked up)
chain: SGNANTDYNAAIALVQDKSRQDDAMVAFQNFIKNYPDSTYLPNANYWLGQLNYNKGKKDDAAYYFASVVKNYPKSPKAADAMFKVGVIMQDKGDTAKAKAVYQQVISKYPGTDGAKQAQKRLNAM
notes: CpoB, E. coli, residues 139-263 (TPR domain), in pET28a with a thrombin cleavage site; In the PRE NMR one of the partners was 15N-labelled, the other spin labelled at random on lysines with OXYL-1-NHS; also called C-terminal TPR domain; source: E. coli BL21(DE3), purified (HisTrap, Superdex 200)

Holding throughout (details): both partners purified
For assay [1], the target named is T1, PBP1B (wild type, PBP1B^46-844) (E. coli, UniProt P02919 46-844).
T1 construct: PBP1B, E. coli, residues 46-844, encoded on pDML924; Immobilised on the SPR chip as in Egan et al. 2014 / Gray et al. 2015; also called WT PBP1B; WT; source: E. coli BL21(DE3), purified (membrane extract, HisTrap, thrombin, HiTrap SP ion exchange)
T1 sequence (looked up): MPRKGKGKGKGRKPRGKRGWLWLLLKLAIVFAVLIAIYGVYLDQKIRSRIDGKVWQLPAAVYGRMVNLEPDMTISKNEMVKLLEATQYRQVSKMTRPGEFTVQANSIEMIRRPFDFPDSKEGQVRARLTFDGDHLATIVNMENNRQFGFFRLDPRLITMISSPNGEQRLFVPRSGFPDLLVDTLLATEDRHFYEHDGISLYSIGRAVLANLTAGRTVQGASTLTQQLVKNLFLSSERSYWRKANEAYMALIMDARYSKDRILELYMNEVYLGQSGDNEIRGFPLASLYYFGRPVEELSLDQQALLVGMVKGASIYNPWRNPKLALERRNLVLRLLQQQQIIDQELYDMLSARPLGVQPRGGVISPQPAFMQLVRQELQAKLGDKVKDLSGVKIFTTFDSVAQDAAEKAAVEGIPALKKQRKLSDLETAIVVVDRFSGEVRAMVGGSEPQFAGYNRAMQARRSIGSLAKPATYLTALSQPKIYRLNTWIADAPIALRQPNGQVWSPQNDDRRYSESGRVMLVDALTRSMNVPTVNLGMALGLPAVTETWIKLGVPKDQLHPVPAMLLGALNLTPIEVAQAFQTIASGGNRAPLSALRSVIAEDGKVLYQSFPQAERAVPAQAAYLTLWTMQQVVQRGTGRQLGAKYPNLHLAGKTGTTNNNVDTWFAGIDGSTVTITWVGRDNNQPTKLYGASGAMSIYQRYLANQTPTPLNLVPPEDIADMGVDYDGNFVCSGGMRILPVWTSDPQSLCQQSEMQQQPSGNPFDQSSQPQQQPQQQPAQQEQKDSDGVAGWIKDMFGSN
As to the kind of experiment: SPR; PBP1B versions immobilised to the chip surface; CpoB versions injected from either 3.9 nM to 2 μM or from 78 nM to 40 μM; apparent KD by non-linear regression, at least three independent experiments.

Assay [2] concerns the target T1, PBP1B (wild type, PBP1B^46-844). The assay is described as above. The source holds these as a separate data set.
For assay [3], the target named is B1. As to the kind of experiment: paramagnetic relaxation enhancement (PRE) NMR; 100 µM 15N-labelled protein with the partner spin labelled at random on lysines, molar ratio 1:2, 2D HN-HSQC at 850 MHz, 20°C; intensity ratio before and after reduction with sodium ascorbate; done in both directions (15N-CpoB with spin labelled UB2H, 15N-UB2H with spin labelled CpoB).

As for B1, the Kd in assay [1] came out at 4.9 µM.

B2: CpoB^TPR+link (CpoB^110-263) (domain or fragment, E. coli, UniProt P45955 110-263, looked up)
chain: STSGDQSGAAASTTPTADAGTANAGAPVKSGNANTDYNAAIALVQDKSRQDDAMVAFQNFIKNYPDSTYLPNANYWLGQLNYNKGKKDDAAYYFASVVKNYPKSPKAADAMFKVGVIMQDKGDTAKAKAVYQQVISKYPGTDGAKQAQKRLNAM
notes: CpoB, E. coli, residues 110-263 (inter-domain linker and TPR domain), in pET28a with a thrombin cleavage site; also called CpoB^TPR version with this linker (res. 110–263); source: E. coli BL21(DE3), purified (HisTrap, Superdex 200)
Turning to B2, in assay [2], the binding result was “binds”.

B3: UB2H domain of PBP1B (PBP1B^108–200) (domain or fragment, E. coli, UniProt P02919 108-200, looked up)
chain: GRMVNLEPDMTISKNEMVKLLEATQYRQVSKMTRPGEFTVQANSIEMIRRPFDFPDSKEGQVRARLTFDGDHLATIVNMENNRQFGFFRLDPR
notes: PBP1B, E. coli, residues 108 to 200 (UB2H domain), in pET28a with a thrombin cleavage site; [13C,15N]- or 15N-labelled for NMR; in the reciprocal PRE experiment spin labelled at random on lysines with OXYL-1-NHS; source: E. coli BL21(DE3), isotopically labelled in M9 medium, purified (HisTrap, Superdex 200)
Consider B3, for which the binding result in assay [3] is “binds”.

The values are drawn from paper PMC6220978, “Induced conformational changes activate the peptidoglycan synthase PBP1B” (Molecular Microbiology, 2018).
